Measured values taken from article PMC6175577, “BRCT domains of the DNA damage checkpoint proteins TOPBP1/Rad4 display distinct specificities for phosphopeptide ligands” (eLife, 2018).
One block for each substance: values may come before it.

Key:
TOPBP1 BRCT0,1,2 = TOPBP1 BRCT0,1,2 (UniProt Q92547); test: fluorescence polarisation titration; conditions: reference: pT202 peptide, untreated; sites T202
[1] = biological target: RAD9 pS387 (Homo sapiens) (UniProt Q99638); conditions: cited from earlier work
Sequence of RAD9 pS387 (Homo sapiens) (Q99638 whole entry): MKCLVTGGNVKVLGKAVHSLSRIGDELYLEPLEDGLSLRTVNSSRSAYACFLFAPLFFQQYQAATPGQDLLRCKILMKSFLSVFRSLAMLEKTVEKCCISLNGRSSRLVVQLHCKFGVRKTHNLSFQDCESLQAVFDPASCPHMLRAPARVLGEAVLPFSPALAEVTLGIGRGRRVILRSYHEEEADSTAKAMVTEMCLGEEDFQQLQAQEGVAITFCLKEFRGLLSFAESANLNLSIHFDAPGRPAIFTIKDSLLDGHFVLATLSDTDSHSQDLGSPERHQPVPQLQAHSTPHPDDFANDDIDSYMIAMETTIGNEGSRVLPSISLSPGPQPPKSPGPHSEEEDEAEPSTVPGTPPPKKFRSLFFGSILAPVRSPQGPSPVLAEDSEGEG

[2] = biological target: RHNO1 pT202 fluorescein-labelled phosphopeptide (human); test: fluorescence polarisation; fluorescein-labelled peptide at 200 nM, increasing concentrations of recombinant protein; room temperature; 25 mM HEPES pH 7.5, 150 mM NaCl, 1 mM EDTA, 0.25 mM TCEP, 0.02% Tween-20; one site-specific binding model

Sequence of TOPBP1 BRCT1 (Q92547 98-192): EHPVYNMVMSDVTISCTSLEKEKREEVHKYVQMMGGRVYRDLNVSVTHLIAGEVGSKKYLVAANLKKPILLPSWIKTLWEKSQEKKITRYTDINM

binding against the reference (TOPBP1 BRCT0,1,2): lost
Substance: RHNO1 (from UniProt Q9BSD3) λ-phosphatase-dephosphorylated peptide

Substance: TOPBP1 BRCT1 (from UniProt Q92547)
Kd [1]: 2.1 µM

fold tighter binding than RAD9-pS387 [2]: 10 fold
Substance: TOPBP1-BRCT0,1,2 segment, wild type (recombinant, fluorescence polarisation) (domain or fragment)
